The source of these data is PMC8034659.

Holding throughout (assay): SPR
In general terms: SPR reads the build-up and loss of mass on a sensor chip optically.

For one data set, the target named is T1, TrfA E361K (plasmid RK2, UniProt P07676 98-382, G254D;S267L;E361K).
T1 sequence: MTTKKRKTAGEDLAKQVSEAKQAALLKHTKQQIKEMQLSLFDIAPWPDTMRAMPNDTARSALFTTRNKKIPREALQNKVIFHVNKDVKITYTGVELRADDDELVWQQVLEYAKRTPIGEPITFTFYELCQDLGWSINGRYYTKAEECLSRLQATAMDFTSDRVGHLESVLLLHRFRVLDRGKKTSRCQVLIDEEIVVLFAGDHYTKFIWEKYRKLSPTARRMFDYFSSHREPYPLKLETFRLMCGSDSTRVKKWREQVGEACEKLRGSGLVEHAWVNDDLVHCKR

The target in the next data set is T2, TrfA R347E (plasmid RK2, UniProt P07676 98-382, G254D;S267L;R347E).
T2 sequence: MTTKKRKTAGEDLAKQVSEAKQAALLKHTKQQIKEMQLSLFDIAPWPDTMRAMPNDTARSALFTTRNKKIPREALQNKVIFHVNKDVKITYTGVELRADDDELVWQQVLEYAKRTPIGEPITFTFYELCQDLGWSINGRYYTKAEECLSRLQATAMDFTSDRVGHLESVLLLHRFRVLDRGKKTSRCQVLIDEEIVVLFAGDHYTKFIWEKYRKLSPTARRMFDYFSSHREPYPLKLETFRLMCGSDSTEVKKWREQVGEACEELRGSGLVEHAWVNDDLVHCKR

Another data set deals with T3, TrfA K165E (plasmid RK2, UniProt P07676 98-382, K165E;G254D;S267L).
T3 sequence: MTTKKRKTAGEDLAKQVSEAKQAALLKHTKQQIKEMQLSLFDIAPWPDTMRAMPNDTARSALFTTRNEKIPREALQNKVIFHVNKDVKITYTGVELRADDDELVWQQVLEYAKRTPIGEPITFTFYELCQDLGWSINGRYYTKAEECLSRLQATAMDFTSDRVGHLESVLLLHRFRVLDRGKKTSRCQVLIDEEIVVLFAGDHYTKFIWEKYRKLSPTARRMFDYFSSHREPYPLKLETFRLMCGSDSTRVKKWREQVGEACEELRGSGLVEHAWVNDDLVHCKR

Data set [1] has as its target T4, TrfA wt (G254D/S267L, 33 kDa) (plasmid RK2, UniProt P07676 98-382, G254D;S267L).
T4 sequence: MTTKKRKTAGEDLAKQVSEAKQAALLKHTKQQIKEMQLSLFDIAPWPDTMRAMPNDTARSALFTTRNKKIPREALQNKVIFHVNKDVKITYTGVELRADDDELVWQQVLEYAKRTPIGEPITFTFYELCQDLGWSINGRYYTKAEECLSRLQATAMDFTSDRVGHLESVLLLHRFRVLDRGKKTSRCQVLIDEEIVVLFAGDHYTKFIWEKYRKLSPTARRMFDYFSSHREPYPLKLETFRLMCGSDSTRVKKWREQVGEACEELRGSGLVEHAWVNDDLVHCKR

B1: five RK2 iterons (ItT/ItB) (dsDNA)
DNA 1: CCTGCGGTATTGACACTTGAGGGGCGCGACTACTGACAGATGAGGGGCGCGATCCTTGACACTTGAGGGGCAGAGTGATGACAGATGAGGGGCGCACCTATTGACATTTGAGGGGCTGTCCACAGGCAG
DNA 2: CTGCCTGTGGACAGCCCCTCAAATGTCAATAGGTGCGCCCCTCATCTGTCATCACTCTGCCCCTCAAGTGTCAAGGATCGCGCCCCTCATCTGTCAGTAGTCGCGCCCCTCAAGTGTCAATACCGCAGG
Take B1: the binding result in the data set with TrfA E361K is recorded as “binds”; in the data set with TrfA R347E, “no binding”; with TrfA K165E, “no binding”; in data set [1] it was “binds”.
